In the Immune Epitope Database (IEDB) one finds Kd and IC50 data, which are given here for five sequences.

For experiment [1], the target named is HLA-A*01:01. Nature of the experiment: IEDB peptide-MHC binding, purified MHC/competitive/fluorescence; filed as Kd, often an IC50 or EC50 that approximates it; ≥ and ≤ were set here for values at or beyond the usual limits of such assays.
Experiment [2] deals with HLA-A*02:01. Described as above.
Experiment [3] addresses HLA-A*03:01. The description is as above. The following applies: source organism: Corynebacterium glutamicum R.
Experiment [4] addresses HLA-A*30:01. Described as above.
Experiment [5] deals with HLA-A*31:01. The description is as above. The following applies: source organism: Corynebacterium glutamicum R.
For experiment [6], the target named is HLA-A*69:01. The description is as above.
The target of experiment [7] is HLA-B*07:02. The experiment is described as above. The following applies: source organism: Corynebacterium glutamicum R.
In experiment [8] the target is HLA-B*08:01. Described as above. The following applies: source organism: Corynebacterium glutamicum R.
Experiment [9] concerns the target HLA-B*08:02. The description is as above.
For experiment [10], the target named is HLA-B*15:01. The description is as above.
The target of experiment [11] is HLA-B*18:01. The description is as above.
In experiment [12] the target is HLA-B*27:05. The experiment is described as above. The following applies: source organism: Corynebacterium glutamicum R.
Experiment [13] addresses HLA-B*35:01. The experiment is described as above. The following applies: source organism: Corynebacterium glutamicum R.
For experiment [14], the target named is HLA-B*40:01. The experiment is described as above. The following applies: source organism: Corynebacterium glutamicum R.
Experiment [15] addresses HLA-B*46:01. The experiment is described as above.
Experiment [16] addresses HLA-B*58:01. Described as above. The following applies: source organism: Corynebacterium glutamicum R.
The target in experiment [17] is HLA-C*12:03. Nature of the experiment: IEDB peptide-MHC binding, purified MHC/direct/fluorescence; filed as Kd, often an IC50 or EC50 that approximates it; ≥ and ≤ were set here for values at or beyond the usual limits of such assays. The following applies: source organism: Bacillus anthracis str. A0488.
In experiment [18] the target is HLA-C*14:02. Described as above. The following applies: source organism: Bacillus anthracis str. A0488.
In experiment [19] the target is HLA-C*15:02. The experiment is described as above. The following applies: source organism: Bacillus anthracis str. A0488.
In experiment [20] the target is HLA-B*15:02. Nature of the experiment: IEDB peptide-MHC binding, purified MHC/competitive/fluorescence; filed as Kd, often an IC50 or EC50 that approximates it; ≥ and ≤ were set here for values at or beyond the usual limits of such assays.
In experiment [21] the target is HLA-A*11:01. The description is as above. The following applies: source organism: Human immunodeficiency virus 1.
For experiment [22], the target named is HLA-B*15:17. Described as above. The following applies: source organism: Human immunodeficiency virus 1.
Experiment [23] concerns the target HLA-B*39:01. The description is as above.
Experiment [24] concerns the target HLA-A*01:01. As to the kind of experiment: IEDB peptide-MHC binding, purified MHC/competitive/fluorescence; ≥ and ≤ were set here for values at or beyond the usual limits of such assays. The following applies: source organism: Zaire ebolavirus.
Experiment [25] addresses HLA-A*02:01. The description is as above. The following applies: source organism: Zaire ebolavirus.
Experiment [26] addresses HLA-A*11:01. The experiment is described as above. The following applies: source organism: Zaire ebolavirus.
Experiment [27] has as its target HLA-B*15:01. Described as above. The following applies: source organism: Zaire ebolavirus.
Experiment [28] has as its target HLA-A*01:01. As to the kind of experiment: IEDB peptide-MHC binding, purified MHC/direct/fluorescence; filed as Kd, often an IC50 or EC50 that approximates it; ≥ and ≤ were set here for values at or beyond the usual limits of such assays. The following applies: source organism: Zaire ebolavirus.
The target of experiment [29] is HLA-A*02:03. The experiment is described as above. The following applies: source organism: Zaire ebolavirus.
Experiment [30] addresses HLA-A*02:11. The description is as above. The following applies: source organism: Zaire ebolavirus.
The target in experiment [31] is HLA-A*02:12. Described as above. The following applies: source organism: Zaire ebolavirus.
Experiment [32] has as its target HLA-A*02:16. The description is as above. The following applies: source organism: Zaire ebolavirus.
Experiment [33] addresses HLA-A*02:19. Described as above. The following applies: source organism: Zaire ebolavirus.
For experiment [34], the target named is HLA-A*03:01. Described as above. The following applies: source organism: Zaire ebolavirus.
In experiment [35] the target is HLA-A*23:01. Described as above. The following applies: source organism: Zaire ebolavirus.
The target of experiment [36] is HLA-A*24:03. The experiment is described as above. The following applies: source organism: Zaire ebolavirus.
Experiment [37] addresses HLA-A*29:02. The description is as above. The following applies: source organism: Zaire ebolavirus.
In experiment [38] the target is HLA-A*68:02. Described as above. The following applies: source organism: Zaire ebolavirus.
Experiment [39] has as its target HLA-A*26:01. As to the kind of experiment: IEDB peptide-MHC binding, purified MHC/competitive/fluorescence; filed as Kd, often an IC50 or EC50 that approximates it; ≥ and ≤ were set here for values at or beyond the usual limits of such assays. The following applies: source organism: Zaire ebolavirus.
Experiment [40] deals with HLA-B*27:03. The description is as above. The following applies: source organism: Zaire ebolavirus.
The target in experiment [41] is HLA-B*51:01. Described as above. The following applies: source organism: Zaire ebolavirus.
Experiment [42] addresses HLA-B*57:01. Described as above. The following applies: source organism: Zaire ebolavirus.
The mark [43] stands for this setting: source organism: Corynebacterium glutamicum R.
Where [44] appears, read: source organism: Human immunodeficiency virus 1.
Where [45] appears, read: source organism: Zaire ebolavirus.

Broadly, the Kd is the equilibrium constant for the complex coming apart. For orientation: IC50 means the midpoint of a concentration-inhibition curve. A high value points to weaker potency in that assay.

In the case of RYDDGQSIY, the Kd is 19.7 µM in [1] (setting [43]); at least 20 µM in experiment [2] (setting [43]); at least 20 µM in experiment [3]; at least 20 µM in experiment [4] (setting [43]); at least 20 µM in experiment [5]; at least 20 µM in experiment [6] (setting [43]). Besides, the Kd in [7], in experiment [8], in experiment [9] (setting [43]), in experiment [10] (setting [43]), in [11] (setting [43]) and in experiment [12] was at least 20 µM throughout. For the same sequence, the Kd in experiment [13], in experiment [14], in [15] (setting [43]) and in experiment [16] was at least 20 µM throughout.
For the sequence YLARYSGSM, the Kd in [17] was 0.3 µM; in [18] it was 0.03 µM; in [19], at least 20 µM; in experiment [20] (source organism: Bacillus anthracis str. A0488), 0.0123 µM.
Turning to GTEELKSLY, the Kd is 0.0163 µM in experiment [1] (setting [44]); at least 20 µM in experiment [21]; at least 20 µM in [4] (setting [44]); at least 20 µM in [9] (setting [44]); 0.0595 µM in [22]; at least 20 µM in [23] (setting [44]).
Turning to YIRGVCSAF, the Kd in [20] (source organism: Vibrio parahaemolyticus RIMD 2210633) was 0.0807 µM.
Regarding ATEDPSSGY, the IC50 was at least 154 µM in experiment [24], at least 379 µM in experiment [25], 49.6 µM in [26] and at least 97.2 µM in experiment [27]. Also, the Kd in experiment [28] was 0.438 µM; in experiment [29] it was at least 20 µM; in experiment [30], at least 20 µM; in experiment [31], at least 20 µM; in [32], at least 20 µM; in experiment [33] it was at least 20 µM. The Kd in [34], in experiment [35], in [36], in [37], in experiment [38] and in [2] (setting [45]) was at least 20 µM in each case. Further, the dissociation constant (Kd) in [39], in [6] (setting [45]), in [10] (setting [45]), in [11] (setting [45]), in experiment [40] and in experiment [23] (setting [45]) was at least 20 µM in each case. Besides, the Kd in [15] (setting [45]), in [41] and in [42] was at least 20 µM each time.
